In patent publication US20260159579A1 (Pfizer, published 2026):
“And” between values parts separate entries of the source, which are not always exact repeats. Equal entries are not always repeated. Where two headings read alike, the source gives them in different places.

What was measured:
[1] = biological target: Mouse Fc-mouse GDF15 (Mu IgG1Fc_Fxa_Mu GDF15) (mouse); experiment: SPR BIAcore T200, 37C; Fc-GDF15 captured, IgG as analyte
[2] = biological target: T1, Mouse Fc-human GDF15 (Mu IgG1Fc_Fxa_Hu GDF15) (human); experiment: as above
T1 construct: Whole entry is the fusion: mouse IgG1 Fc, FXa site and linker, mature human GDF15; described as dimeric; also called Murine dimeric IgG1 Fc-human GDF-15 with FXa cleavage site; control human GDF15
T1 chain: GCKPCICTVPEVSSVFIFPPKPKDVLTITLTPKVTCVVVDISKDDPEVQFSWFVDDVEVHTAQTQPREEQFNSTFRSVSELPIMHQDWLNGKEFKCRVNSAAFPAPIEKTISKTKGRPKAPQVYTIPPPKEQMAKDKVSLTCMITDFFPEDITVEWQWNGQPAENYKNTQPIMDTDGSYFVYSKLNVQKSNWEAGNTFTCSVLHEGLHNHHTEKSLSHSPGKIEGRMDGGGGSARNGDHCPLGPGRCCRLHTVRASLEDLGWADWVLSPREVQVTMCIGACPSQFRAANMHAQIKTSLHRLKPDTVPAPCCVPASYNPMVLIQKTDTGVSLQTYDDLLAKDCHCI
Protocol: (§1) Mouse Fc-human GDF15 (Mu IgG1Fc_Fxa_Hu GDF15; SEQ ID NO:2), Mouse Fc-mouse GDF15 (Mu IgG1Fc_Fxa_Mu GDF15; SEQ ID NO:5) and Mouse Fc-cynomolgus monkey GDF15 (Mu IgG1Fc_Fxa_Cyno GDF15; SEQ ID NO:4) were captured onto three different flow cells of a CM4 sensorchip (catalogue number BR100534, GE Healthcare) surface using the Mouse Antibody Capture Kit (BR100838, GE Healthcare) according to the manufacturer's protocol. The running and sample bufferwas 10 mM HEPES pH 7.4, 0.15M NaCl, 3 mM EDTA, 0.05% P-20 (HBS-EP+). The final capture levels of Mu IgG1Fc_Fxa_Hu GDF15, Mu IgG1Fc_Fxa_Mu GDF15 and Mu IgG1Fc_Fxa_Cyno GDF15 were 40 resonance units (RU), 32 RU and 25 RU respectively. Flow cell 1 was used as a reference flow cell. […] The dissociation was monitored for 2.8 hours and the surface was regenerated with 10 mM Glycine pH 1.7. Binding affinities and rate constants were determined for murine and cynomolgus monkey GDF15 by fitting the resulting sensorgram data to a 1:1 Langmuir model in BIAcore T200 Evaluation software version 2.0 (GE Healthcare).
(§2) Additionally, the binding of clone GDF15_001 to cynomolgus monkey and mouse GDF15 was measured using above mentioned BIAcore assay (Table 7).

[3] = biological target: T1, Mouse Fc-human GDF15 (Mu IgG1Fc_Fxa_Hu …); experiment: as above
Protocol: as §1, §2

[4] = biological target: T2, Mouse Fc-cynomolgus monkey GDF15 (Mu IgG1Fc_Fxa_Cyno GDF15) (cynomolgus monkey); experiment: as above
T2 construct: Whole entry is the fusion: mouse IgG1 Fc, FXa site and linker, cynomolgus GDF15; described as dimeric; also called Murine dimeric IgG1 Fc-cyno GDF-15 with FXa cleavage site
T2 chain: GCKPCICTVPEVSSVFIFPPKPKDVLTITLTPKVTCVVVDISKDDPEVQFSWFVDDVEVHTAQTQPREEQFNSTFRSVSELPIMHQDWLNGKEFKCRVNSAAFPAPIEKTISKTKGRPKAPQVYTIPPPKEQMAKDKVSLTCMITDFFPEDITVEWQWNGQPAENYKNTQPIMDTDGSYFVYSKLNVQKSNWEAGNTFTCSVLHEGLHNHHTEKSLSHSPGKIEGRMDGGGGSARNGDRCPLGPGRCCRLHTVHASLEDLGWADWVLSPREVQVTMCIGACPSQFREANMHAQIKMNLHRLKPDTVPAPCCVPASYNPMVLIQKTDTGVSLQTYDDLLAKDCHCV
Protocol: as §1, §2

[5] = biological target: Mouse Fc-mouse GDF15 (Mu IgG1Fc_Fxa_Mu GDF15) (mouse); experiment: SPR BIAcore T200, 37C; Fc-GDF15 captured, IgG as analyte; average of runs
[6] = biological target: T1, Mouse Fc-human GDF15 (Mu IgG1Fc_Fxa_Hu …); experiment: SPR BIAcore T200, 37C; Fc-GDF15 captured, IgG as analyte; apparent KD
[7] = biological target: T1, Mouse Fc-human GDF15 (Mu IgG1Fc_Fxa_Hu …); experiment: SPR BIAcore T200, 37C; Fc-GDF15 captured, IgG as analyte; average of runs
Protocol: as §1, §2

[8] = biological target: T1, Mouse Fc-human GDF15 (Mu IgG1Fc_Fxa_Hu …); experiment: as above
Protocol: as §1, §2

[9] = biological target: T2, Mouse Fc-cynomolgus monkey GDF15 (Mu …); experiment: as above
Protocol: as §1, §2

[10] = biological target: T1, Mouse Fc-human GDF15 (Mu IgG1Fc_Fxa_Hu …); experiment: SPR BIAcore T200, 37C; Fc-GDF15 captured, IgG as analyte; average of runs; apparent KD

B1: GDF15_001 (antibody, human IgG1, kappa, V domains shown)
VH: QVQLVQSGAEVKKPGSSVKVSCKASGYTFSSYNIDWVRQAPGQGLEWMGGINPIFGTAFYNQKFQGRVTITADESTSTAYMELSSLRSEDTAVYYCAREAITTVGAMDHWGQGTLVTVSS
VL: EIVLTQSPATLSLSPGERATLSCRTSQSVHNYLAWYQQKPGQAPRLLIYDASTRADGIPARFSGSGSGTDFTLTISSLEPEDFAVYYCQQFWSWPWTFGQGTKVEIKR
notes: Tested in bivalent format; IgG1 heavy chain, kappa light chain; also called ponsegromab; PF-06946860
In the case of B1, the Kd [1] is reported as 0.114 nM and 0.175 nM and 0.138 nM, the T½ min [1] is reported as 0.66 h and 0.447 h and 0.555 h and the koff [1] is reported as 0.000292 s⁻¹ and 0.000431 s⁻¹ and 0.000347 s⁻¹. The kon [1] was 2.6e+06 M⁻¹ s⁻¹ and 2.5e+06 M⁻¹ s⁻¹ (2×), the Kd [2] was < 0.01 nM and the T½ min [2] was 40.3 h and 20.9 h and 30.8 h. For the same binder, the koff [2] was 4.78e-06 s⁻¹ and 9.22e-06 s⁻¹ and 6.25e-06 s⁻¹, the kon [2] was 1.69e+06 M⁻¹ s⁻¹ and 2.18e+06 M⁻¹ s⁻¹ and 2.03e+06 M⁻¹ s⁻¹ and the T½ min [3] was 20.9 h and 30.8 h and 40.3 h. The koff [3] was 9.22e-06 s⁻¹ and 6.25e-06 s⁻¹ and 4.78e-06 s⁻¹, the kon [3] was 1.69e+06 M⁻¹ s⁻¹ and 2.03e+06 M⁻¹ s⁻¹ and 2.18e+06 M⁻¹ s⁻¹ and the Kd [4] was 0.00886 nM and 0.00671 nM and 0.00926 nM. For the same binder, the T½ min [4] was 14.8 h and 15.5 h and 18.7 h, the koff [4] was 1.3e-05 s⁻¹ and 1.24e-05 s⁻¹ and 1.03e-05 s⁻¹ and the kon [4] was 1.47e+06 M⁻¹ s⁻¹ and 1.85e+06 M⁻¹ s⁻¹ and 1.12e+06 M⁻¹ s⁻¹. The Kd [5] was 0.142 nM, the koff [5] was 0.000356 s⁻¹ and the kon [5] was 2.51e+06 M⁻¹ s⁻¹. For the same binder, the Kd [6] was < 0.01 nM, the Kd [7] was < 0.01 nM and the koff [7] was 6.75e-06 s⁻¹. The kon [7] was 1.97e+06 M⁻¹ s⁻¹, the koff [8] was 6.75e-06 s⁻¹ and the kon [8] was 1.97e+06 M⁻¹ s⁻¹. For the same binder, the Kd [9] was 0.00828 nM, the koff [9] was 1.19e-05 s⁻¹ and the kon [9] was 1.48e+06 M⁻¹ s⁻¹. For the same binder, the Kd [10] was < 0.01 nM.
